The text below walks through data of US20240425885.

Holding throughout (assay): cleavage_in_vitro
Data set [1] concerns T1, OMNI-125 (metagenomic, unknown).
T1 sequence: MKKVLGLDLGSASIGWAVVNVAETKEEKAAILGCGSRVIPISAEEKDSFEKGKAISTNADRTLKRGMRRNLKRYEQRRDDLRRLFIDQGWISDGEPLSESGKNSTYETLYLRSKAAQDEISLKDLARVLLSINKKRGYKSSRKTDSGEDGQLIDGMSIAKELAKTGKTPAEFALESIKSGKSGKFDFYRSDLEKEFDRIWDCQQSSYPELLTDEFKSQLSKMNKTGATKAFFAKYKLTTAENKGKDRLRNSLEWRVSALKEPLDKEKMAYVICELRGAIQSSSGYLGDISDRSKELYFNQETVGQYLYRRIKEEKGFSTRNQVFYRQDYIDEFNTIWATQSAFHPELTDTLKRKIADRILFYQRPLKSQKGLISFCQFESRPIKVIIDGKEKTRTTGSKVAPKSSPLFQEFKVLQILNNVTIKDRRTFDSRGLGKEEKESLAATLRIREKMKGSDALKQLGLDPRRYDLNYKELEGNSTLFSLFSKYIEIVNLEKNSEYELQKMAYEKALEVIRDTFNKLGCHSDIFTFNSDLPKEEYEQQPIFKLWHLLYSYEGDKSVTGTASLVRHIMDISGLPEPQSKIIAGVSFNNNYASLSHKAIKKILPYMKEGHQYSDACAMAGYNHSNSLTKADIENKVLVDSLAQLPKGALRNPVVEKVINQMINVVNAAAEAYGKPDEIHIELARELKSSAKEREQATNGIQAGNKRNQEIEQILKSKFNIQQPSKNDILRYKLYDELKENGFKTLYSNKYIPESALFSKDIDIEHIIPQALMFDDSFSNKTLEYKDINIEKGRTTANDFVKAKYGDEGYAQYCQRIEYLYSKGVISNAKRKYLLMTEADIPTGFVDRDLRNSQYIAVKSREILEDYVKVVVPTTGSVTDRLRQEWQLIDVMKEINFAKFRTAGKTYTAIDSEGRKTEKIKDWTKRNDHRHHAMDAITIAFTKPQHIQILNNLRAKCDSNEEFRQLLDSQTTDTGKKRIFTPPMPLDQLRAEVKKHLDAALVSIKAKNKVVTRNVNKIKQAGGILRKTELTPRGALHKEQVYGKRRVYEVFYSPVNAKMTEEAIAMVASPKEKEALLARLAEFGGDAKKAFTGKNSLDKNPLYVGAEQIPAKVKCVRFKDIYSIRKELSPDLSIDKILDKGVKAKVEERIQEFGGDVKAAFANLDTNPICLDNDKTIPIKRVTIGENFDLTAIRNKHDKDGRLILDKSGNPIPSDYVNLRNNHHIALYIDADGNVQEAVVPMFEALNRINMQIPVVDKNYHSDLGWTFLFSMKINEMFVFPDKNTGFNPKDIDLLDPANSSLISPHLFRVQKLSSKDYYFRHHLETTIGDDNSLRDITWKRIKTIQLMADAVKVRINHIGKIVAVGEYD
To be noted: TXTL; PAM NARNCCYN

Data set [2] has as its system T2, OMNI-123 (metagenomic, unknown).
T2 sequence: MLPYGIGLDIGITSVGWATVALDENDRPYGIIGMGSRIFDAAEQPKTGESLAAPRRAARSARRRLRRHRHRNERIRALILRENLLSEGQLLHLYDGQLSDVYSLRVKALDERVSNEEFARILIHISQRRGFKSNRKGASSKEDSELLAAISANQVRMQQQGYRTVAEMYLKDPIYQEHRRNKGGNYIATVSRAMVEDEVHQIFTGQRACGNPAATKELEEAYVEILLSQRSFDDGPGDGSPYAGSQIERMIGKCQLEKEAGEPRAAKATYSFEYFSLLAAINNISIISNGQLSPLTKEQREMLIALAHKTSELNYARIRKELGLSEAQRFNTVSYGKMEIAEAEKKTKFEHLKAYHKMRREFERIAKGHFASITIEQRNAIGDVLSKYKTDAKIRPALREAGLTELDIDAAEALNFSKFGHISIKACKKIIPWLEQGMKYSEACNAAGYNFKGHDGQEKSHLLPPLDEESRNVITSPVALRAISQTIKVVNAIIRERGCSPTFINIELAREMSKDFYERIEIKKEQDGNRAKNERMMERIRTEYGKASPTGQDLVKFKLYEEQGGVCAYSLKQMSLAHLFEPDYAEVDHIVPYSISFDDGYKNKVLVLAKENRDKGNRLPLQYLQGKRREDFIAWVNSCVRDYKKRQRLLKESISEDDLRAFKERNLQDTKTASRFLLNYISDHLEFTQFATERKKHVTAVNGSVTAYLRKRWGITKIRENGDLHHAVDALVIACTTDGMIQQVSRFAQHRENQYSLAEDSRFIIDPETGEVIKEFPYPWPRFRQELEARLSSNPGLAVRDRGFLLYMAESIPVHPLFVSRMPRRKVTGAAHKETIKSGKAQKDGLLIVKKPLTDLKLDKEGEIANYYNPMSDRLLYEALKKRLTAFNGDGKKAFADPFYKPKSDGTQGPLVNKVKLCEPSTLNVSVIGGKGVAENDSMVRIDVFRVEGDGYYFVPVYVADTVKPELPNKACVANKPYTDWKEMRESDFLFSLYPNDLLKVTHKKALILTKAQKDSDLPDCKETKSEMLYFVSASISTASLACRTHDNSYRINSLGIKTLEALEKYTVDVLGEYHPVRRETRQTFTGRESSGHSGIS
To be noted: TXTL; PAM NNNSGYAA

Data set [3] deals with OMNI-121 (metagenomic, unknown). As to conditions: TXTL; PAM NNAAAYNN
The test system of data set [4] is T3, OMNI-122 (metagenomic, unknown).
T3 sequence: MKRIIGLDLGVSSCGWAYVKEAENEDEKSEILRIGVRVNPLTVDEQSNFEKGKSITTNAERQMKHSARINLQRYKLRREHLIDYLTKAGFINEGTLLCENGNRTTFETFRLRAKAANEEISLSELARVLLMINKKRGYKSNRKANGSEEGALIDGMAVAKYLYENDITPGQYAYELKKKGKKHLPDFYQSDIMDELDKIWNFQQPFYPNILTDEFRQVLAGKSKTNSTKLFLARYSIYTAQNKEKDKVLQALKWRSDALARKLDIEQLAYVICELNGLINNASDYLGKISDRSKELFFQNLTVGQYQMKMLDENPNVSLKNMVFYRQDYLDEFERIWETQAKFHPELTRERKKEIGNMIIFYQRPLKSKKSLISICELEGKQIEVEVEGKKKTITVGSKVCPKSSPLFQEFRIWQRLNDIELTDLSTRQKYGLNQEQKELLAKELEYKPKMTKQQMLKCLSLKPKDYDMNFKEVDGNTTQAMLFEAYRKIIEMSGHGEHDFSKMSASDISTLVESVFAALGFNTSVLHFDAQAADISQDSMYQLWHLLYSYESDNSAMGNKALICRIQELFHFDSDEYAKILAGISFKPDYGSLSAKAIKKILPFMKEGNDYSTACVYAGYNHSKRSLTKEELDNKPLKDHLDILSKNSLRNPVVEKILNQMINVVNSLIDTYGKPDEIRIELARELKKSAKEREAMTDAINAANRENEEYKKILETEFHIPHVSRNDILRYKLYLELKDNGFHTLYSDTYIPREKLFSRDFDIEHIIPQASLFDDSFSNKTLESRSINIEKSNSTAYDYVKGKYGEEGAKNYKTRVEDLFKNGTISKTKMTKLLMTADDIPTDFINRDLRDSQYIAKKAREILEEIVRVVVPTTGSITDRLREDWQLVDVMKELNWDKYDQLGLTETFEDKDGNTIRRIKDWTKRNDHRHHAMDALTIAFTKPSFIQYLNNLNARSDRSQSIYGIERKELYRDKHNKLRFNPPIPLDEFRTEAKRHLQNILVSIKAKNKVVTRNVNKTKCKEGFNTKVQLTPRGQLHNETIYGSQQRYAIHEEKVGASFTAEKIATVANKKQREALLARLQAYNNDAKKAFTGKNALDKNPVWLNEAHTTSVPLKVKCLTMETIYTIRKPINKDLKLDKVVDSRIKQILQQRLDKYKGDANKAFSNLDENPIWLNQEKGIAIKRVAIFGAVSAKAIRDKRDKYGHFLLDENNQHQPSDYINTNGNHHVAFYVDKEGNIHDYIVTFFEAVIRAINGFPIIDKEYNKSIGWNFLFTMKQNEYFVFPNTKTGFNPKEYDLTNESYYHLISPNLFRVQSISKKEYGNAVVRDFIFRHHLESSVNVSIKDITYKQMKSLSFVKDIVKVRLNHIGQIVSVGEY
As to conditions: TXTL; PAM NRYTTTYN

For data set [5], the system named is T4, OMNI-126 (metagenomic, unknown).
T4 sequence: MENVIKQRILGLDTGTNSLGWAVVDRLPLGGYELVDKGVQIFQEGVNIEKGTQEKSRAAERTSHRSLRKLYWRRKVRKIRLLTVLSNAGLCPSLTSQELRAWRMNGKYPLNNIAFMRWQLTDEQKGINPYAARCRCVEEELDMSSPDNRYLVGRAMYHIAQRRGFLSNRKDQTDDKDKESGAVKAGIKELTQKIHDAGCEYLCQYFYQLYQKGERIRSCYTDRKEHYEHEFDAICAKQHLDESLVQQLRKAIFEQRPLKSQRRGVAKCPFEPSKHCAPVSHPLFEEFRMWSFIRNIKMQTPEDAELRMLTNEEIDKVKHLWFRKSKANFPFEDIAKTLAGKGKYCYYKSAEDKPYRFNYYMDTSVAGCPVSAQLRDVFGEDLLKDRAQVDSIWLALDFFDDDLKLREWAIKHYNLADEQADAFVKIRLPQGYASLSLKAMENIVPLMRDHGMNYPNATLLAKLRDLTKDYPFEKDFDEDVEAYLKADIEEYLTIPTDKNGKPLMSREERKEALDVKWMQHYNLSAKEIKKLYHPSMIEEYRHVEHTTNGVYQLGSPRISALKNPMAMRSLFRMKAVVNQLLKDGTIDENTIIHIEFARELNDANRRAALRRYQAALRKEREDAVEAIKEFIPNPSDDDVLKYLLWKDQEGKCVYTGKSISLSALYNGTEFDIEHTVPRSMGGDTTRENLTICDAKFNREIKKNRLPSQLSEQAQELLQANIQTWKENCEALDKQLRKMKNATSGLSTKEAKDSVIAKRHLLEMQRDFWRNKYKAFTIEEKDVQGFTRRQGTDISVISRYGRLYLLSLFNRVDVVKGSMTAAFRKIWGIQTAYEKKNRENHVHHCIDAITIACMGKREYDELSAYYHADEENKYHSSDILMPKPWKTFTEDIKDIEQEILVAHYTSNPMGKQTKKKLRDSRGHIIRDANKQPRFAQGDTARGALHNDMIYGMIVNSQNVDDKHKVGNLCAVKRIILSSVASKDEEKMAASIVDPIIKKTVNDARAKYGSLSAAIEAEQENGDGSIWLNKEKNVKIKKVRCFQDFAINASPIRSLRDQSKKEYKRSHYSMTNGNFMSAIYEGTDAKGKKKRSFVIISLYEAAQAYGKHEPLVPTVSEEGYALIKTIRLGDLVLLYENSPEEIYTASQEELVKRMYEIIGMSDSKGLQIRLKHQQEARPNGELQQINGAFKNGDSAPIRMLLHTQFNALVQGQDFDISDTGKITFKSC
As to conditions: TXTL; PAM NNNNAARN

Sequence of OMNI-121 (metagenomic, unknown) (chain, as listed by the source): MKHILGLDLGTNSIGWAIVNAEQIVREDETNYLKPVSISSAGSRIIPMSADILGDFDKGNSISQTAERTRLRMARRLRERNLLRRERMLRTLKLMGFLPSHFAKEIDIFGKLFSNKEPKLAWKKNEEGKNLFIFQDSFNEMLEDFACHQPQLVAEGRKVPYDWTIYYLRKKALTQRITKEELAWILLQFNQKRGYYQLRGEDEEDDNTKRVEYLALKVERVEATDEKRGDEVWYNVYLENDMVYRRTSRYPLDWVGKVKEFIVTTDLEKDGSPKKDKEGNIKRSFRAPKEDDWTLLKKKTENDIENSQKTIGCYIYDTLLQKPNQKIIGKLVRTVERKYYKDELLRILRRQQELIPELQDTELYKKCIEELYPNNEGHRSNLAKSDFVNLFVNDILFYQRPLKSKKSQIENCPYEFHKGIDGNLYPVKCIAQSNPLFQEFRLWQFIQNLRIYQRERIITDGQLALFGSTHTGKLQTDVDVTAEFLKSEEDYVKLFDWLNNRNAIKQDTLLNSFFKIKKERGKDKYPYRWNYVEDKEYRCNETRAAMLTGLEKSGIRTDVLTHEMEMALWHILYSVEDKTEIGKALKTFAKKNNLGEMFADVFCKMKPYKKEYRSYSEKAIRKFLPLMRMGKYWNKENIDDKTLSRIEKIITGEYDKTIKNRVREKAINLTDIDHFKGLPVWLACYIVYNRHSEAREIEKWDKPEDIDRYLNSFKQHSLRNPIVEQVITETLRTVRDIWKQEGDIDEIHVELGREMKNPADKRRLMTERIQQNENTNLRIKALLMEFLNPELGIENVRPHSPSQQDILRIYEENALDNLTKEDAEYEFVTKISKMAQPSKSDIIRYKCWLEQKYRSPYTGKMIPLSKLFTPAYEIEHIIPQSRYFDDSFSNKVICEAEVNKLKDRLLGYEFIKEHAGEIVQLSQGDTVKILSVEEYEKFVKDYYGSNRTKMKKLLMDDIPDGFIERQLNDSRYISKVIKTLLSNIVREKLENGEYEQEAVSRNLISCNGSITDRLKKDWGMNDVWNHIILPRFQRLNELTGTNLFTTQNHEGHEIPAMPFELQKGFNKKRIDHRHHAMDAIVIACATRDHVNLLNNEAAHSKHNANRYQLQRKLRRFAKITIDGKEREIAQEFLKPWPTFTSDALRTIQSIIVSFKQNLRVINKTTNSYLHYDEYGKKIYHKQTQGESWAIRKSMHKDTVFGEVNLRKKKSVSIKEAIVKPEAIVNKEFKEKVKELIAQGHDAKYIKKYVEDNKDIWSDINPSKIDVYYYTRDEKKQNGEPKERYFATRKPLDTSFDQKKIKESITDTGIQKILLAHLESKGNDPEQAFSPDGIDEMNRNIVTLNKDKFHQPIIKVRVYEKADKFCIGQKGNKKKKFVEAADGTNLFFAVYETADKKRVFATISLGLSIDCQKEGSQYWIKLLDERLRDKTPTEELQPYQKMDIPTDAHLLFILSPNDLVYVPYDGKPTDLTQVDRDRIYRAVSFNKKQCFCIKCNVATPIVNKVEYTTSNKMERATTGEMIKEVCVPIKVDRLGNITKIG

Sequence “GGAAGAGCAGAGCCUUGGUCUCGUUGUGAAUGGCUUUCGAAAUUGAAGCCAUUCACAAUAAGGAUUAUUCCGUUGUGAAAACAUUAAGAGCGGGUCGUGAGACUCGCUCUUCUGUGUUUAUUUUUU / GGAAGAGCAGAGCCTTGGTCTCNNNNNNNN / NNNNNNNNGAGACCAAGGCTCTGCTCTTCC [T2 sgRNA 27 V1 ; T2 protospacer + 8N PAM library (pbPOS T2)]” returned an activity (1-depletion score) in data set [1] of 0.95. The sequence “GGAAGAGCAGAGCCUUGGUCUCGUUAUAGUUCCCUGAUAGUGAAAACUAUGAGGUUGCUAUAAUAAGGUAGUAAACCGCAGAGCUCUAACGCCUCACAUUUGUGGGGCGUUAUCUCUUUUUUU / GGAAGAGCAGAGCCTTGGTCTCNNNNNNNN / NNNNNNNNGAGACCAAGGCTCTGCTCTTCC [T2 sgRNA 26 V1 ; T2 protospacer + 8N PAM library (pbPOS T2)]” came in with an activity (1-depletion score) in data set [2] of 0.95. Turning to “GGAAGAGCAGAGCCUUGGUCUCGUUGUGAAUUGCUUGAAAUUCUUGAAAGAAUUUCAGCAAUUCACAAUAAGGAUUAUUCCGUUGUGAAAACAUUCAGGUUCCUGCCCUCGUCCUUUAACGGGGGCUUUUUU / GGAAGAGCAGAGCCTTGGTCTCNNNNNNNN / NNNNNNNNGAGACCAAGGCTCTGCTCTTCC [T2 sgRNA 24 V1 ; T2 protospacer + 8N PAM library (pbPOS T2)]”, in data set [3], the activity (1-depletion score) amounted to 0.91. With “GGAAGAGCAGAGCCUUGGUCUCGUUGUGAAUUGCUUUCGAAAGAAGCAAUUCACAAUAAGGAUUAUUCCGUUGUGAAAACAUUUAAGAGAGUCCUUCGUCCUUCGGAGGAUUCUUUUUU / GGAAGAGCAGAGCCTTGGTCTCNNNNNNNN / NNNNNNNNGAGACCAAGGCTCTGCTCTTCC [T2 sgRNA 25 V1 ; T2 protospacer + 8N PAM library (pbPOS T2)]”, the activity (1-depletion score) in data set [4] came to 0.84.

Turning to “GGAAGAGCAGAGCCUUGGUCUCGUUGUGGCUUGUUGAAGAAGAAAUUCUUCAACUUGUCACAAUAAGGCCCUUAAGGCCGAAGGUUGAAAAACCUAUGGCUCUACUUCGGUGGAGCCUUUUUU / GGAAGAGCAGAGCCTTGGTCTCNNNNNNNN / NNNNNNNNGAGACCAAGGCTCTGCTCTTCC [T2 sgRNA 28 V1 ; T2 protospacer + 8N PAM library (pbPOS T2)]”, in data set [5], the activity (1-depletion score) came out at 0.64.
